This note sets out measurements from patent US11278600B2, “Human alpha-galactosidase variants” (Codexis, Inc., priority 2014, dated 2022).

What all share (assay type): biochemical
The nature of data set [1]: HTP-analysis of yeast culture supernatants, no challenge (MUGal hydrolysis). The conditions noted are these: activity of the variant/activity of Rd4BB (SEQ ID NO: 15). The essentials:
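GLA variants were expressed in INVSc1 yeast grown in SD-Ura broth with glucose at 30° C., and culture supernatants were collected after 66-84 h. Supernatant was mixed with McIlvaine buffer pH 4.8 and MUGal (2 mM stock) in 50 mM citrate, 200 mM KCl, pH 4.6, incubated at 37° C. for 30-180 minutes, then quenched with sodium carbonate.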

Data set [2] in a line: HTP-analysis of supernatants pretreated with acid (MUGal hydrolysis). The settings on record: activity of the variant/activity of Rd4BB (SEQ ID NO: 15); challenge at pH 3.7. The method in brief:
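Supernatants from INVSc1 yeast secreting GLA variants were challenged at 37° C. for 1-3 h in McIlvaine buffer at pH 3.3-4.3. Residual activity was then measured on 4 mM MUGal substrate stock at pH 4.8 with citrate buffer pH 4.3, over 30-180 min at 37° C. Reactions were quenched with sodium carbonate and read by fluorescence (Ex 355/Em 448 nm).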

A short description of data set [3]: HTP-analysis of supernatants pretreated with base (MUGal hydrolysis). The conditions noted are these: activity of the variant/activity of Rd4BB (SEQ ID NO: 15); challenge at pH 9.65. The method in brief:
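Supernatants from INVSc1 yeast expressing GLA variants (SD-Ura, 66-84 h, 30° C) were mixed with McIlvaine buffer pH 7.0-8.2 or 200 mM sodium bicarbonate pH 9.1-9.7 and held 1-18 h at 37° C. Residual activity was then measured on MUGal at pH 4.8/4.3, 37° C, 30-180 min, by fluorescence (Ex 355/Em 448 nm).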

B1: 392 (protein)
chain: LDNGLARTPTMGWLHWERFMCNLDCQEEPDSCISEKLFMEMAERMVSEGWKDAGYEYLCIDDCWMAPQRDSEGRLQADPQRFPHGIRQLANYTHSKGLKLGIYADVGNKTCAGFPGSFGYYDIDAQTFADWGVDLLKFDGCYCDSLENLADGYKHMSLALNRTGRSIVYSCEWPLYMWPFQKPNYTEIRQYCNHWRNFADIDDSWKSIKSILDWTSRNQERIVDVAGPGGWNDPDMLVIGNFGLSWDQQVTQMALWAIMAAPLFMSNDLRHISPQAKALLQDKDVIAINQDPLGKQGYQLRKGDNFEVWERPLSGDAWAVAIINRQEIGGPRSYTIPVASLGKGVACNPACFITQLLPVKRQLGFYNWTSRLKSHINPTGTVLLQLENTMQMSLKDLL
modifications: Synthetic Polypeptide sequence of Variant No. 392 of mature Human GLA
As to B1, the “Relative Activity of GLA Variants After No Challenge (NC)” value in data set [1] is reported as “+ (0.5 to 1.5 relative activity over Rd4BB (SEQ ID NO: 15))”. The “Relative Activity of GLA Variants After Challenge at pH 3.7” value (shortened to “Relative Activity … at pH 3.7”) in data set [2] is on record as “+ (0.5 to 1.5 relative activity over Rd4BB (SEQ ID NO: 15))”. Moreover, the “Relative Activity of GLA Variants After Challenge at pH 9.65” value (“Relative Activity … at pH 9.65” below) in data set [3] is “− (<0.5 relative activity over Rd4BB (SEQ ID NO: 15))”.

B2: 361 (protein)
chain: LDNGLARTPTMGWLHWERFMCNLDCQEEPDSCISEKLFMEMAERMVREGWKDAGYEYLCIDDCWMAPQRDSEGRLQADPQRFPHGIRQLANYVHSKGLKLGIYADVGNKTCAGFPGSFGYYDIDAQTFADWGVDLLKFDGCYCDSLENLADGYKHMSLALNRTGRSIVYSCEWPLYMWPFQKPNYTEIRQYCNHWRNFADIDDSWKSIKSILDWTSRNQERIVDVAGPGGWNDPDMLVIGNFGLSWDQQVTQMALWAIMAAPLFMSNDLRHISPQAKALLQDKDVIAINQDPLGKQGYQLRKGDNFEVWERPLSGDAWAVAIINRQEIGGPRSYTIPVASLGKGVACNPACFITQLLPVKRQLGFYNWTSRLKSHINPTGTVLLQLENTMQMSLKDLL
modifications: Synthetic Polypeptide sequence of Variant No. 361 of mature Human GLA
Turning to B2, the “Relative Activity of GLA Variants After No Challenge (NC)” value in data set [1] is reported as “+ (0.5 to 1.5 relative activity over Rd4BB (SEQ ID NO: 15))”. The “Relative Activity … at pH 3.7” value in data set [2] is “+ (0.5 to 1.5 relative activity over Rd4BB (SEQ ID NO: 15))”. The “Relative Activity … at pH 9.65” value in data set [3] is recorded as “+ (0.5 to 1.5 relative activity over Rd4BB (SEQ ID NO: 15))”.

B3: 393 (protein)
chain: LDNGLARTPTMGWLHWERFMCNLDCQEEPDSCISEKLFMEMAERMVSEGWKDAGYEYLCIDDCWMAPQRDSEGRLQADPQRFPHGIRQLANYGHSKGLKLGIYADVGNKTCAGFPGSFGYYDIDAQTFADWGVDLLKFDGCYCDSLENLADGYKHMSLALNRTGRSIVYSCEWPLYMWPFQKPNYTEIRQYCNHWRNFADIDDSWKSIKSILDWTSRNQERIVDVAGPGGWNDPDMLVIGNFGLSWDQQVTQMALWAIMAAPLFMSNDLRHISPQAKALLQDKDVIAINQDPLGKQGYQLRKGDNFEVWERPLSGDAWAVAIINRQEIGGPRSYTIPVASLGKGVACNPACFITQLLPVKRQLGFYNWTSRLKSHINPTGTVLLQLENTMQMSLKDLL
modifications: Synthetic Polypeptide sequence of Variant No. 393 of mature Human GLA
In the case of B3, the “Relative Activity of GLA Variants After No Challenge (NC)” value in data set [1] is recorded as “+ (0.5 to 1.5 relative activity over Rd4BB (SEQ ID NO: 15))”. Besides, in data set [2], the “Relative Activity … at pH 3.7” value is recorded as “− (<0.5 relative activity over Rd4BB (SEQ ID NO: 15))”. The “Relative Activity … at pH 9.65” value in data set [3] is “− (<0.5 relative activity over Rd4BB (SEQ ID NO: 15))”.

B4: 397 (protein)
chain: LDNGLARTPTMGWLHWERFMCNLDCQEEPDSCISEKLFMEMAERMVSEGWKDAGYEYLCIDDCWMAPQRDSEGRLQADPQRFPHGIRQLANYVHSKGLKLGIYADVGNKTCAGFPGSFGYYDIDAQTFADWGVDLLKFDGCYCDSLENLADGYKHMSRALNRTGRSIVYSCEWPLYMWPFQKPNYTEIRQYCNHWRNFADIDDSWKSIKSILDWTSRNQERIVDVAGPGGWNDPDMLVIGNFGLSWDQQVTQMALWAIMAAPLFMSNDLRHISPQAKALLQDKDVIAINQDPLGKQGYQLRKGDNFEVWERPLSGDAWAVAIINRQEIGGPRSYTIPVASLGKGVACNPACFITQLLPVKRQLGFYNWTSRLKSHINPTGTVLLQLENTMQMSLKDLL
modifications: Synthetic Polypeptide sequence of Variant No. 397 of mature Human GLA
With B4, the “Relative Activity of GLA Variants After No Challenge (NC)” value in data set [1] is reported as “+ (0.5 to 1.5 relative activity over Rd4BB (SEQ ID NO: 15))”. The “Relative Activity … at pH 3.7” value in data set [2] is reported as “+ (0.5 to 1.5 relative activity over Rd4BB (SEQ ID NO: 15))”. In addition, the “Relative Activity … at pH 9.65” value in data set [3] is “+ (0.5 to 1.5 relative activity over Rd4BB (SEQ ID NO: 15))”.

B5: 394 (protein)
chain: LDNGLARTPTMGWLHWERFMCNLDCQEEPDSCISEKLFMEMAERMVSEGWKDAGYEYLCIDDCWMAPQRDSEGRLQADPQRFPHGIRQLANYRHSKGLKLGIYADVGNKTCAGFPGSFGYYDIDAQTFADWGVDLLKFDGCYCDSLENLADGYKHMSLALNRTGRSIVYSCEWPLYMWPFQKPNYTEIRQYCNHWRNFADIDDSWKSIKSILDWTSRNQERIVDVAGPGGWNDPDMLVIGNFGLSWDQQVTQMALWAIMAAPLFMSNDLRHISPQAKALLQDKDVIAINQDPLGKQGYQLRKGDNFEVWERPLSGDAWAVAIINRQEIGGPRSYTIPVASLGKGVACNPACFITQLLPVKRQLGFYNWTSRLKSHINPTGTVLLQLENTMQMSLKDLL
modifications: Synthetic Polypeptide sequence of Variant No. 394 of mature Human GLA
Consider B5, for which the “Relative Activity of GLA Variants After No Challenge (NC)” value in data set [1] is “+ (0.5 to 1.5 relative activity over Rd4BB (SEQ ID NO: 15))”. In addition, the “Relative Activity … at pH 3.7” value in data set [2] is listed as “+ (0.5 to 1.5 relative activity over Rd4BB (SEQ ID NO: 15))”. Further, the “Relative Activity … at pH 9.65” value in data set [3] is “− (<0.5 relative activity over Rd4BB (SEQ ID NO: 15))”.

B6: 395 (protein)
chain: LDNGLARTPTMGWLHWERFMCNLDCQEEPDSCISEKLFMEMAERMVSEGWKDAGYEYLCIDDCWMAPQRDSEGRLQADPQRFPHGIRQLANHVHSKGLKLGIYADVGNKTCAGFPGSFGYYDIDAQTFADWGVDLLKFDGCYCDSLENLADGYKHMSLALNRTGRSIVYSCEWPLYMWPFQKPNYTEIRQYCNHWRNFADIDDSWASIKSILDWTSRNQERIVDVAGPGGWNDPDMLVIGNFGLSWDQQVTQMALWAIMAAPLFMSNDLRHISPQAKALLQDKDVIAINQDPLGKQGYQLRKGDNFEVWERPLSGDAWAVAIINRQEIGGPRSYTIPVASLGKGVACNPACFITQLLPVKRQLGFYNWTSRLKSHINPTGTVLLQLENTMQMSLKDLL
modifications: Synthetic Polypeptide sequence of Variant No. 395
Regarding B6, the “Relative Activity of GLA Variants After No Challenge (NC)” value in data set [1] is “+ (0.5 to 1.5 relative activity over Rd4BB (SEQ ID NO: 15))”. Also, the “Relative Activity … at pH 3.7” value in data set [2] is recorded as “+ (0.5 to 1.5 relative activity over Rd4BB (SEQ ID NO: 15))”. Also, the “Relative Activity … at pH 9.65” value in data set [3] was “+ (0.5 to 1.5 relative activity over Rd4BB (SEQ ID NO: 15))”.

B7: 398 (protein)
chain: LDNGLARTPTMGWLHWERFMCNLDCQEEPDSCISEKLFMEMAERMVSEGWKDAGYEYLCIDDCWMAPQRDSEGRLQADPQRFPHGIRQLANYVHSKGLKLGIYADVGNKTCAGFPGSFGYYDIDAQTFADWGVDLLKFDGCYCDSLENLADGYKHMSLSLNRTGRSIVYSCEWPLYMWPFQKPNYTEIRQYCNHWRNFADIDDSWKSIKSILDWTSRNQERIVDVAGPGGWNDPDMLVIGNFGLSWDQQVTQMALWAIMAAPLFMSNDLRHISPQAKALLQDKDVIAINQDPLGKQGYQLRKGDNFEVWERPLSGDAWAVAIINRQEIGGPRSYTIPVASLGKGVACNPACFITQLLPVKRQLGFYNWTSRLKSHINPTGTVLLQLENTMQMSLKDLL
modifications: Synthetic Polypeptide sequence of Variant No. 398 of mature Human GLA
Turning to B7, in data set [1], the “Relative Activity of GLA Variants After No Challenge (NC)” value is given as “+ (0.5 to 1.5 relative activity over Rd4BB (SEQ ID NO: 15))”. In data set [2], the “Relative Activity … at pH 3.7” value was “++ (>1.5 to 2.5 relative activity over Rd4BB (SEQ ID NO: 15))”. In addition, the “Relative Activity … at pH 9.65” value in data set [3] is “− (<0.5 relative activity over Rd4BB (SEQ ID NO: 15))”.

B8: 396 (protein)
chain: LDNGLARTPTMGWLHWERFMCNLDCQEEPDSCISEKLFMEMAERMVSEGWKDAGYEYLCIDDCWMAPQRDSEGRLQADPQRFPHGIRQLANYVHSKGLKLGIYADVGNKTCAGFPGSFGYYDIDAQTFADWGVDLLKFDGCYCDSLENLADGYKHMSMALNRTGRSIVYSCEWPLYMWPFQKPNYTEIRQYCNHWRNFADIDDSWKSIKSILDWTSRNQERIVDVAGPGGWNDPDMLVIGNFGLSWDQQVTQMALWAIMAAPLFMSNDLRHISPQAKALLQDKDVIAINQDPLGKQGYQLRKGDNFEVWERPLSGDAWAVAIINRQEIGGPRSYTIPVASLGKGVACNPACFITQLLPVKRQLGFYNWTSRLKSHINPTGTVLLQLENTMQMSLKDLL
modifications: Synthetic Polypeptide sequence of Variant No. 396 of mature Human GLA
In the case of B8, the “Relative Activity of GLA Variants After No Challenge (NC)” value in data set [1] is recorded as “+ (0.5 to 1.5 relative activity over Rd4BB (SEQ ID NO: 15))”. Further, in data set [2], the “Relative Activity … at pH 3.7” value is “+ (0.5 to 1.5 relative activity over Rd4BB (SEQ ID NO: 15))”. Moreover, in data set [3], the “Relative Activity … at pH 9.65” value is on record as “+ (0.5 to 1.5 relative activity over Rd4BB (SEQ ID NO: 15))”.
